Consider 2 substances from paper PMC7110780, “Multimodular fused acetyl–feruloyl esterases from soil and gut Bacteroidetes improve xylanase depolymerization of recalcitrant biomass” (Biotechnology for Biofuels, 2020).

A word on the Km: it is the substrate concentration at which the rate is half of its maximum. The kcat is the number of substrate molecules converted per active site and unit of time at saturation. The kcat/Km is the second-order rate constant that governs catalysis at low substrate concentration.

Series [1] deals with CC(=O)Oc1ccc2c(C)cc(=O)oc2c1. The series can be described thus: purified protein. It counts as biochemical, Bacteroides ovatus. To be noted: pH 8.0, 37 °C, 100 mM buffer.
Series [2] deals with CC(=O)Oc1ccc([N+](=O)[O-])cc1. As to the kind of experiment: purified protein. It is filed as biochemical, Bacteroides ovatus. To be noted: pH 8.0, 37 °C, 100 mM buffer.

Turning to BoCE1 (Bacteroides ovatus), in series [1], the Km is 40 ± 10 µM, the kcat was 0.28 ± 0.01 s⁻¹ and the catalytic efficiency (kcat/Km) amounted to 7100 ± 1600 M⁻¹ s⁻¹. Moreover, in series [2], the Km worked out at 1400 ± 100 µM, the kcat was 0.7 ± 0.02 s⁻¹ and the kcat/Km came out at 500 ± 40 M⁻¹ s⁻¹.

With BoCE6 (Bacteroides ovatus), in series [1], the Km was 27 ± 6 µM, the kcat is 1.2 ± 0.1 s⁻¹ and the kcat/Km stood at 42800 ± 10000 M⁻¹ s⁻¹. Also, in series [2], the Michaelis constant (Km) was found to be 1800 ± 200 µM, the kcat amounted to 36 ± 2.2 s⁻¹ and the kcat/Km amounted to 20100 ± 2700 M⁻¹ s⁻¹.
